{"source": "patent US20170253650A1", "about": "(FRAUNHOFER GESELLSCHAFT ZUR FOERDERUNG DER ANGEWANDTEN …, published 2017)", "key": {"[1]": {"molecular_target": "MSP4 on P. falciparum K1 parasites (multi-drug-resistant strain) (Plasmodium falciparum K1)", "assay": "cell-based or functional assay"}, "[2]": {"molecular_target": "MSP4 on P. falciparum 3D7A parasites (mature schizonts / merozoite surface) (Plasmodium falciparum 3D7A)", "assay": "cell-based or functional assay"}}, "data": [{"binder": "Gb-2.44 (enterokinase-activated EGb-2.44scFv fusion protein: granzyme B R201K fused to MSP4-specific scFv 2.44) (other) SRHIDDDDKIIGGHEAKPHSRPYMAFLMIWDQKSLKRCGGFLIRDDFVLTAAHCWGSSINVTLGAHNIKEQEPTQQFIPVKRAIPHPAYNPKNFSNDIMLLQLERKAKRTRAVQPLRLPSNKAQVKPGQTCSVAGWGQTAPLGKHSHTLQEVKMTVQEDRKCESDLRHYYDSTIELCVGDPEIKKTSFKGDSGGPLVCNKVAQGIVSYGKNNGMPPRACTKVSSFVHWIKKTMKRYAEHEGDAAQPAMADVQLQESGPGLVKPSQSLSLTCTVTGYSITSDFAWNWIRQFPGNRLEWMGYMGYTGSTSYNPSLRGRISITRDTSKNQFFLQLNSVTTEDTATYYCARGDYYGSRGYFDVWGAGTTVTVSSGGGGSGGGGSSGGGSGGGGSEIVLTQSPALMAASPGEKVTITCSVSSSIRSSNLHWYQQKSDTSPKPWIYGTSNLASGVPVRFSGSGSGTSYSLTISTMEAEDAATYYCQQWSSYPFTFGSGTKLEIKAAANSSLGSGWSHPQFEKTGHHHHHHHHGGQ", "values": [{"measurement": "IC50-value, 48-h drug susceptibility assay on multi-drug resistant strain P. falciparum K1 (PfHRP2 ELISA)", "setting": "[1]", "value": 247, "unit": "nM"}, {"measurement": "half maximal inhibitory concentration (IC50-value), 48-h drug susceptibility assay on P. falciparum 3D7A (PfHRP2 ELISA)", "setting": "[2]", "value": 176, "unit": "nM"}]}]}
